Test results taken from article PMC2756588.

T1: Lsb3, P43603
T1 sequence (P43603 385-451, looked up): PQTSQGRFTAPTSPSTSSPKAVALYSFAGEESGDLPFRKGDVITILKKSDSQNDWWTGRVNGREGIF

T2: Sla1-3, P32790
T2 sequence (P32790 344-424, looked up): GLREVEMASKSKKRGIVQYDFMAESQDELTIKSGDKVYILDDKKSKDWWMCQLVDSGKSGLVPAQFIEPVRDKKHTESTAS

T3: Lsb4, P32793
T3 sequence (P32793 402-468, looked up): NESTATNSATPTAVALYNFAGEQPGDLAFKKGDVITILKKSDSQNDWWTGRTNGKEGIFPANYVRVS

T4: Bbc1, P47068
T4 sequence (P47068 1-78, looked up): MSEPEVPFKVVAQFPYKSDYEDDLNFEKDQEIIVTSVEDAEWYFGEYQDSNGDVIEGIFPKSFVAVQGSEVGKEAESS

T5: Cdc25, P04821
T5 sequence (P04821 50-136, looked up): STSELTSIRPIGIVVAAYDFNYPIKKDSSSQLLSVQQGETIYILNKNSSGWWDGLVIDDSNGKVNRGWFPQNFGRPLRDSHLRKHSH

T6: Sla1-2, P32790
T6 sequence (P32790 60-140, looked up): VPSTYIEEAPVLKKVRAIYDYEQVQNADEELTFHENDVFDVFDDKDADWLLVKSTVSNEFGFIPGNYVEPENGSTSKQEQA

T7: Myo5, Q04439
T7 sequence (Q04439 1072-1160, looked up): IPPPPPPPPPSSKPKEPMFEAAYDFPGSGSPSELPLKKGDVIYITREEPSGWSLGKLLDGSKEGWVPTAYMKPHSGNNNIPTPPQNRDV

T8: Fus1, P11710
T8 sequence (P11710 432-512, looked up): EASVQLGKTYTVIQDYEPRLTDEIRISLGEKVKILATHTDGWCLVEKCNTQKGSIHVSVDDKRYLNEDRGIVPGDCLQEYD

T9: Nbp2, Q12163
T9 sequence (Q12163 103-180, looked up): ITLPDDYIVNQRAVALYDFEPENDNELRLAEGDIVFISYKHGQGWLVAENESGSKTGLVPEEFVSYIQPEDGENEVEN

T10: Abp1, P15891
T10 sequence (P15891 535-592, looked up): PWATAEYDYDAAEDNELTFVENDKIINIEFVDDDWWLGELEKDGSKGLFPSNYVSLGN

T11: Pin3, Q06449
T11 sequence (Q06449 53-122, looked up): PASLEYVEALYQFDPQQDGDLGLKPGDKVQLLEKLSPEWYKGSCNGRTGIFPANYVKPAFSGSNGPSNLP

T12: Hof1, Q05080
T12 sequence (Q05080 590-669, looked up): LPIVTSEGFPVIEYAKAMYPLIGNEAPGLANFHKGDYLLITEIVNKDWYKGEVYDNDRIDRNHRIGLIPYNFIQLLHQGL

T13: Bzz1-1, P38822
T13 sequence (P38822 478-572, looked up): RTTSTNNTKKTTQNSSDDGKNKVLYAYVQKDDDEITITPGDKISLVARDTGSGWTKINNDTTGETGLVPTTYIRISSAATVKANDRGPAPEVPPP

T14: Hse1, P38753
T14 sequence (P38753 208-285, looked up): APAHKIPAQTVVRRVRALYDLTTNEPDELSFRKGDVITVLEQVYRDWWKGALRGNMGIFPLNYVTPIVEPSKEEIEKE

T15: Cyk3, Q07533
T15 sequence (Q07533 1-83, looked up): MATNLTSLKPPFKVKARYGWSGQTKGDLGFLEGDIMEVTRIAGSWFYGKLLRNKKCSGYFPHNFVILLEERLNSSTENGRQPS

T16: Pex13, P80667
T16 sequence (P80667 295-386, looked up): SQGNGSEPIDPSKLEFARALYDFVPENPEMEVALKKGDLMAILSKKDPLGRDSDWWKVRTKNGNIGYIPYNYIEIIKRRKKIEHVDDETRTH

T17: Lsb1, P53281
T17 sequence (P53281 45-122, looked up): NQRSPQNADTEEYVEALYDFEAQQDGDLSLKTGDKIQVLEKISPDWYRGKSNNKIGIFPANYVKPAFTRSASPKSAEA

T18: Boi1, P38041
T18 sequence (P38041 1-86, looked up): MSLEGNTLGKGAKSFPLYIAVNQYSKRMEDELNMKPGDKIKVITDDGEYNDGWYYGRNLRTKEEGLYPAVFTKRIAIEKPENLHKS

T19: Bud14, P27637
T19 sequence (P27637 247-328, looked up): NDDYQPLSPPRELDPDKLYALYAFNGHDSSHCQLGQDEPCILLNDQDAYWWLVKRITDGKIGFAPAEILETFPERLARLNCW

T20: Boi2, P39969
T20 sequence (P39969 32-116, looked up): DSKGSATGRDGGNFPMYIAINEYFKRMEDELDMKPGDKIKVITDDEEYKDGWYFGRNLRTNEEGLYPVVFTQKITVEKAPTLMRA

T21: Bzz1-2, P38822
T21 sequence (P38822 568-633, looked up): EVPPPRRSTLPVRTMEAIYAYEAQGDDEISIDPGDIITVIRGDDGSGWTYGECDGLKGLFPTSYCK

B1: unnamed (peptide)
chain: QNTPPLPPKPKSPHL
B2: unnamed (peptide)
chain: TSFKGRPKPPKTLKH
B3: unnamed (peptide)
chain: SKIRPTPRKPSRMAT
B4: unnamed (peptide)
chain: ATKSASPTLPTRRSR

Tests used:
Test in all cases: SPOT array
Lsb3, P43603 = biological target: T1, Lsb3, P43603; settings: median of control spots 406
Rvs167, P39743 = settings: median of control spots 2707
Sla1-3, P32790 = biological target: T2, Sla1-3, P32790; settings: median of control spots 5475
Lsb4, P32793 = biological target: T3, Lsb4, P32793; settings: median of control spots 397
Bbc1, P47068 = biological target: T4, Bbc1, P47068; settings: median of control spots 796
Cdc25, P04821 = biological target: T5, Cdc25, P04821; settings: median of control spots 969
Sla1-2, P32790 = biological target: T6, Sla1-2, P32790; settings: median of control spots 712
Myo5, Q04439 = biological target: T7, Myo5, Q04439; settings: median of control spots 471
Sho1, P40073 = settings: median of control spots 1148
Fus1, P11710 = biological target: T8, Fus1, P11710; settings: median of control spots 1200
Nbp2, Q12163 = biological target: T9, Nbp2, Q12163; settings: median of control spots 357
Abp1, P15891 = biological target: T10, Abp1, P15891; settings: median of control spots 935
Pin3, Q06449 = biological target: T11, Pin3, Q06449; settings: median of control spots 2171
Bem1-2, P29366 = settings: median of control spots 4347
GST = settings: median of control spots 978
Bem1-1, P29366 = settings: median of control spots 4282
Hof1, Q05080 = biological target: T12, Hof1, Q05080; settings: median of control spots 4086
Bzz1-1, P38822 = biological target: T13, Bzz1-1, P38822; settings: median of control spots 4446
Hse1, P38753 = biological target: T14, Hse1, P38753; settings: median of control spots 1727
Cyk3, Q07533 = biological target: T15, Cyk3, Q07533; settings: median of control spots 1451
Pex13, P80667 = biological target: T16, Pex13, P80667; settings: median of control spots 1341
Lsb1, P53281 = biological target: T17, Lsb1, P53281; settings: median of control spots 388
Boi1, P38041 = biological target: T18, Boi1, P38041; settings: median of control spots 1162
Bud14, P27637 = biological target: T19, Bud14, P27637; settings: median of control spots 956
Myo3, P36006 = settings: median of control spots 468
Boi2, P39969 = biological target: T20, Boi2, P39969; settings: median of control spots 1161
Bzz1-2, P38822 = biological target: T21, Bzz1-2, P38822; settings: median of control spots 4538

Chain of Bem1-1, P29366 (P29366 55-141): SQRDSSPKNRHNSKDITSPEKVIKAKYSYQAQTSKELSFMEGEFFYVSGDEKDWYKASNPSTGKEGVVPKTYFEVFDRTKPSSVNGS
Chain of Rvs167, P39743 (P39743 419-482): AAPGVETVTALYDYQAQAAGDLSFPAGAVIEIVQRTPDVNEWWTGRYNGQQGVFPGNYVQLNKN
Chain of Sho1, P40073 (P40073 287-367): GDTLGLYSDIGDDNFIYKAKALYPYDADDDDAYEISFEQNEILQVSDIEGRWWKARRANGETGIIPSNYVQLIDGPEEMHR
Chain of Bem1-2, P29366 (P29366 139-227): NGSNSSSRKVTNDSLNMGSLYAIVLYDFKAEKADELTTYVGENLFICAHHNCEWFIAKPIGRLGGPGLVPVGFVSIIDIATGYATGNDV

Row | Binder | SPOT intensity (Lsb3, P43603) | SPOT intensity (Rvs167, P39743) | SPOT intensity (Sla1-3, P32790) | SPOT intensity (Lsb4, P32793) | SPOT intensity (Bbc1, P47068) | SPOT intensity (Cdc25, P04821) | SPOT intensity (Sla1-2, P32790) | SPOT intensity (Myo5, Q04439) | SPOT intensity (Sho1, P40073) | SPOT intensity (Fus1, P11710) | SPOT intensity (Nbp2, Q12163) | SPOT intensity (Abp1, P15891) | SPOT intensity (Pin3, Q06449) | SPOT intensity (Bem1-2, P29366) | SPOT intensity (GST) | SPOT intensity (Bem1-1, P29366) | SPOT intensity (Hof1, Q05080) | SPOT intensity (Bzz1-1, P38822) | SPOT intensity (Hse1, P38753) | SPOT intensity (Cyk3, Q07533) | further results
1 | B1 | 249 | 8 | 0 | 231 | 0 | 0 | 1 | 0 | 72 | 0 | 1 | 16 | 0 | 16 | 2 | 0 | 1320 | 0 | 634 | 0 | SPOT intensity (Pex13, P80667): 309; SPOT intensity (Lsb1, P53281): 0; SPOT intensity (Boi1, P38041): 3; SPOT intensity (Bud14, P27637): 0; SPOT intensity (Myo3, P36006): 0; SPOT intensity (Boi2, P39969): 0; SPOT intensity (Bzz1-2, P38822): 2
2 | B2 | 0 | 0 | 2 | 0 | 5 | 2 | 0 | 0 | 43 | 1 | 0 | 128 | 4 | 0 | 0 | 0 | 1 | 0 | 2 | 2 | SPOT intensity (Pex13, P80667): 3; SPOT intensity (Lsb1, P53281): 0; SPOT intensity (Boi1, P38041): 1; SPOT intensity (Bud14, P27637): 1; SPOT intensity (Myo3, P36006): 0; SPOT intensity (Boi2, P39969): 0; SPOT intensity (Bzz1-2, P38822): 11
3 | B3 | 124 | 148 | 21 | 162 | 37 | 35 | 21 | 23 | 177 | 12 | 44 | 345 | 20 | 50 | 2 | 6 | 8 | 6 | 19 | 6 | SPOT intensity (Pex13, P80667): 40; SPOT intensity (Lsb1, P53281): 10; SPOT intensity (Boi1, P38041): 4; SPOT intensity (Bud14, P27637): 13; SPOT intensity (Myo3, P36006): 50; SPOT intensity (Boi2, P39969): 3; SPOT intensity (Bzz1-2, P38822): 16
4 | B4 | 834 | 1540 | 1 | 1180 | 79 | 22 | 8 | 0 | 132 | 2 | 2 | 182 | 20 | 18 | 1 | 3 | 0 | 3 | 2 | 1 | SPOT intensity (Pex13, P80667): 249; SPOT intensity (Lsb1, P53281): 56; SPOT intensity (Boi1, P38041): 3; SPOT intensity (Bud14, P27637): 8; SPOT intensity (Myo3, P36006): 12; SPOT intensity (Boi2, P39969): 0; SPOT intensity (Bzz1-2, P38822): 1
